Laboratory results: paper PMC10281602

T1: PbrARF13 (Pyrus bretschneideri? (pear …, UniProt UPI00202FA75D 49-757))
T1 sequence: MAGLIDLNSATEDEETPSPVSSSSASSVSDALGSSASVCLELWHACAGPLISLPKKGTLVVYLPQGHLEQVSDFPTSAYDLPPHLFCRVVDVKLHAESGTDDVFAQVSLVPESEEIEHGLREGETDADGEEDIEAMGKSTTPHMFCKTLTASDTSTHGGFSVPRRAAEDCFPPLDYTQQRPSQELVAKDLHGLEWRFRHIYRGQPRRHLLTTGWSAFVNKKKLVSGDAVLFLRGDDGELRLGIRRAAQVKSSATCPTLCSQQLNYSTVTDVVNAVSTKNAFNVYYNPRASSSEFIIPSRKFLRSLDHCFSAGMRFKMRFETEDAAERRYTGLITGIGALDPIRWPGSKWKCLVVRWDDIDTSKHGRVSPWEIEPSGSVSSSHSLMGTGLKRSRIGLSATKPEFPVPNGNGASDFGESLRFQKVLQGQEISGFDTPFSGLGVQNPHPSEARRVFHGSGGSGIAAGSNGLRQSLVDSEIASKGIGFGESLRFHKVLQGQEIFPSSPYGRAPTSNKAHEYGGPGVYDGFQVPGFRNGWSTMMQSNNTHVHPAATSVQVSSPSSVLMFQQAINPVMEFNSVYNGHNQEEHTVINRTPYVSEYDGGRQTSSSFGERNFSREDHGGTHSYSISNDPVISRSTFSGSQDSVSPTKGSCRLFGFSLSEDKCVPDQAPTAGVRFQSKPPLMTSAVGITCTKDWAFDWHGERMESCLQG

T2: PbrNSC (Pyrus bretschneideri? (pear …, UniProt A0A5J6X514 1-400))
T2 sequence: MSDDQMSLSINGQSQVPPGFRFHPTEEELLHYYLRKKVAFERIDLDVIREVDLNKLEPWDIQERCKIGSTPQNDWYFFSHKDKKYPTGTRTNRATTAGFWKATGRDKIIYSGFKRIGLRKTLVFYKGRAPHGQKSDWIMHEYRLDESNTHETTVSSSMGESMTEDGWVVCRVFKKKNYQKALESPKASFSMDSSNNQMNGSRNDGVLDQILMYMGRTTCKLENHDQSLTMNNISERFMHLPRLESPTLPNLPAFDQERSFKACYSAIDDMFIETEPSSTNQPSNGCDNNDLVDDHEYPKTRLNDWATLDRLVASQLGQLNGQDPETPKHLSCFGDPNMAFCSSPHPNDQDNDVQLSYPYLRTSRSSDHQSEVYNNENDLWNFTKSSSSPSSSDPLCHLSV


Columns and labels:
PbrARF13 [1] = molecular target: T1, PbrARF13; test: EMSA
PbrARF13 [2] = molecular target: T1, PbrARF13; test: competition
PbrNSC = molecular target: T2, PbrNSC; test: EMSA

Binder | binding result (PbrARF13 [1]) | also measured
AuxRE-2 mutant probe (dsDNA) DNA 1: ATCATCTCGAGAGATCTCTTGC DNA 2: GCAAGAGATCTCTCGAGATGAT | no binding | 
AuxRE-2 probe (dsDNA) DNA 1: ATCATCTCTGTCTCTCTCTTGC DNA 2: GCAAGAGAGAGACAGAGATGAT | binds | 
AuxRE-2 unlabelled competitor (dsDNA) DNA 1: ATCATCTCTGTCTCTCTCTTGC DNA 2: GCAAGAGAGAGACAGAGATGAT |  | binding result (PbrARF13 [2]): binds
SNBE probe (dsDNA) DNA 1: ATACTTGAAACCTAAGTAA DNA 2: TTACTTAGGTTTCAAGTAT |  | binding result (PbrNSC): binds
